Legend:
Test in all cases: ITC
[1] = target: T1, HRFYRLAN peptide (RNA dependent RNA polymerase) (SARS-CoV-2, UniProt P0DTD1)
T1 chain: HRFYRLAN

[2] = target: T2, YRLFRK peptide (spike RBD) (SARS-CoV-2, UniProt P0DTC2)
T2 chain: YRLFRK

[3] = target: T3, NRKRISN peptide (spike RBD) (SARS-CoV-2, UniProt P0DTC2)
T3 chain: NRKRISN

Binder: GGTTGGTGTGGTTGG (structured_DNA) [BC 007]
- Kd [1]: 54.7 ± 0.6 µM
- Kd [2]: 86.7 ± 1.2 µM
- binding result [3]: no binding
